The values that follow come from PMC10221436, “Reagentless Electrochemical Detection of Tumor Biomarker Based on Stable Confinement of Electrochemical Probe in Bipolar Silica Nanochannel Film”.

The target in series [1] is T1, alpha fetoprotein (AFP) (UniProt P02771 19-609).
T1 sequence: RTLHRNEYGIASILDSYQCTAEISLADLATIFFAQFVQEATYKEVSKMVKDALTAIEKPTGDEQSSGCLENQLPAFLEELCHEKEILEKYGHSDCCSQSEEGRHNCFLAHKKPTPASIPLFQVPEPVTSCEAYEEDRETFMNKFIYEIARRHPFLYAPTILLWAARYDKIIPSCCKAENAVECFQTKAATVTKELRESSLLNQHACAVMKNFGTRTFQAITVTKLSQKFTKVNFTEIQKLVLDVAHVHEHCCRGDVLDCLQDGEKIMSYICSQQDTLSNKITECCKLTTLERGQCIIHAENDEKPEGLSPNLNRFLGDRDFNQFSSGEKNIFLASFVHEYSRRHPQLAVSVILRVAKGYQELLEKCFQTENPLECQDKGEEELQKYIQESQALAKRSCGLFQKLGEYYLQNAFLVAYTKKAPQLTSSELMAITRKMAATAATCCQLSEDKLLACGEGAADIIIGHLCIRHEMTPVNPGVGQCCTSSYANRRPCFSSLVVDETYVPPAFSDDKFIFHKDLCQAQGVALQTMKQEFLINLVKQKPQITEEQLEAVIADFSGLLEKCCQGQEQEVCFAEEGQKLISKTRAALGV
The series can be described thus: electrochemical aptasensor (MB peak current ratio); 10 ng/mL AFP; 0.01 M PBS (sodium phosphate) pH 7.4; BSA-blocked electrode; CEA incubation temperature and time not in the material. Conditions: protein: commercial.

The target of series [2] is T2, C-reactive protein (CRP) (UniProt P02741 19-224).
T2 sequence: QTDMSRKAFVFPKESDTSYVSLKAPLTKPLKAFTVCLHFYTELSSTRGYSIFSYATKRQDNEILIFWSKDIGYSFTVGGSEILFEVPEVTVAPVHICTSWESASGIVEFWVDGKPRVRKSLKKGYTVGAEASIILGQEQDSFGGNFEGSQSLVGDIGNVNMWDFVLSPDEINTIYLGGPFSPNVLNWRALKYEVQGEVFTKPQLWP
Briefly: electrochemical aptasensor (MB peak current ratio); 10 ng/mL CRP; 0.01 M PBS (sodium phosphate) pH 7.4; BSA-blocked electrode; CEA incubation temperature and time not in the material. The conditions noted are these: protein: commercial; chain copies: 5.

For series [3], the target named is prostate-specific antigen (PSA) (UniProt P07288 25-261). Briefly: electrochemical aptasensor (MB peak current ratio); 10 ng/mL PSA; 0.01 M PBS (sodium phosphate) pH 7.4; BSA-blocked electrode; CEA incubation temperature and time not in the material. Conditions: protein: commercial.
Chain of prostate-specific antigen (PSA) (P07288 25-261): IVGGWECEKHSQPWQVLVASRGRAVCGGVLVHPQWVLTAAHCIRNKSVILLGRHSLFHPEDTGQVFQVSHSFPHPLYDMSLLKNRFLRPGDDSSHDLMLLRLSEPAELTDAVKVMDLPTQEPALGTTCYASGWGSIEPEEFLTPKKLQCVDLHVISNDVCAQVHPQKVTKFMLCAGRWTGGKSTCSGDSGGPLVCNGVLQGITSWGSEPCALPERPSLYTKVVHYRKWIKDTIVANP
Series [4] has as its target cancer antigen 15-3 (CA15-3) (UniProt P15941 24-1097). Briefly: electrochemical aptasensor (MB peak current ratio); 10 uU/mL CA15-3; 0.01 M PBS (sodium phosphate) pH 7.4; BSA-blocked electrode; CEA incubation temperature and time not in the material. Conditions: protein: commercial.
Series [5] has as its target carcinoembryonic antigen (CEA) (UniProt P06731 35-685). Briefly: electrochemical aptasensor (DPV, CV, EIS); 1 pg/mL-1 ug/mL CEA; LOD 0.22 pg/mL (not a Kd); 0.01 M PBS (sodium phosphate) pH 7.4; BSA-blocked electrode; CEA incubation temperature and time not in the material. Conditions: protein: commercial.

Chain of carcinoembryonic antigen (CEA) (P06731 35-685): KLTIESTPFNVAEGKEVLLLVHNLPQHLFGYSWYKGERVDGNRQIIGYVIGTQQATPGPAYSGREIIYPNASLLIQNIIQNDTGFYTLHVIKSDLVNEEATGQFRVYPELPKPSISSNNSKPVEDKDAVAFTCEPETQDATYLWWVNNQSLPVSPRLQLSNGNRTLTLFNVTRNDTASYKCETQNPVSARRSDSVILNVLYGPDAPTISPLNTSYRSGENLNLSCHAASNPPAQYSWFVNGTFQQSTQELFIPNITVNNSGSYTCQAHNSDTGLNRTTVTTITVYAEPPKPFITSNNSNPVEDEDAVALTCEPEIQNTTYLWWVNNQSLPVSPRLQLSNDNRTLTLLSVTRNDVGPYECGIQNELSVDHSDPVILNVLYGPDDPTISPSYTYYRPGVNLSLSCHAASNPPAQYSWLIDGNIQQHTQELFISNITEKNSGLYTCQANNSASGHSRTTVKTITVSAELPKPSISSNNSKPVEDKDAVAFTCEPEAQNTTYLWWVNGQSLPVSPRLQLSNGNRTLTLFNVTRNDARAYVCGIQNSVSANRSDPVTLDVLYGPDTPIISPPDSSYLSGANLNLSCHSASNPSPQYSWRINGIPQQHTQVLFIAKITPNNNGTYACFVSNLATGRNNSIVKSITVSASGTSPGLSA
Chain of cancer antigen 15-3 (CA15-3) (P15941 24-1097): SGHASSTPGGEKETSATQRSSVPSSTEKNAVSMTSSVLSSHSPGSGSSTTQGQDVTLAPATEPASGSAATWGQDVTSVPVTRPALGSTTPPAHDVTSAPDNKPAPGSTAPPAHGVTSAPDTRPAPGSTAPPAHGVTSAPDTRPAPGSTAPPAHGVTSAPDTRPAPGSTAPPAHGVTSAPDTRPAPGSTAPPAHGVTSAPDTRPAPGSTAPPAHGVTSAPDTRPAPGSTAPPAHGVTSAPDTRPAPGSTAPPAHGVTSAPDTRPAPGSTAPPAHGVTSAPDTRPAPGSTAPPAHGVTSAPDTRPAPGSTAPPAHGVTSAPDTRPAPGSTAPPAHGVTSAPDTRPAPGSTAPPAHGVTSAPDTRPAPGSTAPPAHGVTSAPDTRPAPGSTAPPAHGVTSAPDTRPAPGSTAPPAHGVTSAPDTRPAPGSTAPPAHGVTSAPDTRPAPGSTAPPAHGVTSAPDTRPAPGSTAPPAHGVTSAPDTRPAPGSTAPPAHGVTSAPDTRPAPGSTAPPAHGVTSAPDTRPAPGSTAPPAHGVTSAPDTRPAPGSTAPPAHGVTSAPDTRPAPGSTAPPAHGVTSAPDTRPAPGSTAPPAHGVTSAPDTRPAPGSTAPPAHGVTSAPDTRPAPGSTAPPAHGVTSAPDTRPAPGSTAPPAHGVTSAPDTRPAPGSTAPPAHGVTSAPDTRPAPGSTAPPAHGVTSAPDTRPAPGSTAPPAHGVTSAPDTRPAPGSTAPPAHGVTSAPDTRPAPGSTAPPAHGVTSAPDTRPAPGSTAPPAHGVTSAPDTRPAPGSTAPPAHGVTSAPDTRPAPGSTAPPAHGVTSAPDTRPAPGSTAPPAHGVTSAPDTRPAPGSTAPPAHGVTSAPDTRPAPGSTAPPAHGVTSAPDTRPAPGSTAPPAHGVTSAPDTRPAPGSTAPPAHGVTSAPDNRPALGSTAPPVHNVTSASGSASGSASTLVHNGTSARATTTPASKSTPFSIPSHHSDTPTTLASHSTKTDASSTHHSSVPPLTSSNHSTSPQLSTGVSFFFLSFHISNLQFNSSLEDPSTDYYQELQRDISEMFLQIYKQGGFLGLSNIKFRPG

In the case of ATACAGCTTCAATT (ssDNA, 3'-NH2, immobilized via glutaraldehyde on amino-silica film) [CEA aptamer], the binding result in series [1] is given as “no binding”; in series [2], “no binding”; in series [3], “no binding”; in series [4], “no binding”; in series [5], “binds”.
